Results on six molecules are retold here after US20120023600A1 (Novartis, published 2012).

In experiment [1] the target is T1, DKK1-APP (human, UniProt O94907 32-266).
T1 sequence: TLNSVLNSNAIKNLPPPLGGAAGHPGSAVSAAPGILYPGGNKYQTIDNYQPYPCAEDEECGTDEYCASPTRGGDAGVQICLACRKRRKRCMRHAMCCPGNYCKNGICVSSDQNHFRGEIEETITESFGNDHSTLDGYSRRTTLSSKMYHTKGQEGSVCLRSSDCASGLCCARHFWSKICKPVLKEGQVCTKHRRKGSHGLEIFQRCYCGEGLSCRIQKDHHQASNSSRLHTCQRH
Description: cell-based or functional assay.

The target of experiment [2] is T1, DKK1-APP. Description: cell-based or functional assay. The source holds these as a separate data set.
Experiment [3] addresses T2, mouse DKK1 (R&D Systems) (mouse, UniProt O54908 32-272).
T2 construct: Bought protein
T2 sequence (looked up): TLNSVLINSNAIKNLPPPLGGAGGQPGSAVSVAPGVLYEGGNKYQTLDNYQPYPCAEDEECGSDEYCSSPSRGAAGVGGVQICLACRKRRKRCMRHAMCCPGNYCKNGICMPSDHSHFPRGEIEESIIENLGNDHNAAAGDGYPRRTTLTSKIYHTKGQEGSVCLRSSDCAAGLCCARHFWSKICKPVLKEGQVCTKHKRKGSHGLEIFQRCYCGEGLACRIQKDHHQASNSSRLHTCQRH
The experiment in a line: Cross-reactivity mouse (grade in Table 4).

Experiment [4] has as its target T3, recombinant human DKK1 (human, UniProt O94907 32-266).
T3 construct: also called Dickkopf-1; rhDKK1
T3 sequence: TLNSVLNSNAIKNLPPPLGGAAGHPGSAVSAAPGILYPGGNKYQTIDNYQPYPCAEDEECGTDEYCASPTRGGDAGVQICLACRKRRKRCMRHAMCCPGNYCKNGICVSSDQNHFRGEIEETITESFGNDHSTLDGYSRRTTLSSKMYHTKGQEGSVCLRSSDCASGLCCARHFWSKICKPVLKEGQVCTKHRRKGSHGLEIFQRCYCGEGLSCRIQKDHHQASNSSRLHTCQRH
Description: SPR (Biacore), DKK1 immobilised on CM5 chip, Fab as analyte. How it is done:
(§1) Using these clones, kinetic SPR analysis is performed on a. […] The Fab preparations are applied in concentration series of 16-500 nM at a flow rate of 20 μl/min. Association phase is set to 60 s and dissociation phase to 120 s.
For orientation: Surface plasmon resonance follows binding to a sensor surface in real time, without labels.

For experiment [5], the target named is T4, cynomolgus DKK1 (cynomolgus monkey (Macaca fascicularis), UniProt A0A7N9IE82 32-266).
T4 construct: also called cyno DKK1; monkey DKK1 (Novartis)
T4 sequence: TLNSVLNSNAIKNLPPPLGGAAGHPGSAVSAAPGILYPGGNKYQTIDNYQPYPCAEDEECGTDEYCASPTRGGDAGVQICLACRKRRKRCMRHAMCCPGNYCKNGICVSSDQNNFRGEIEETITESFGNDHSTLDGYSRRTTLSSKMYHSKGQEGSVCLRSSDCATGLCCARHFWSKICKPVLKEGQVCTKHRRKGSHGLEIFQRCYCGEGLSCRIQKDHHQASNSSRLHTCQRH
The experiment is described as above. The method, then: as §1

Experiment [6] has as its target T3, recombinant human DKK1. The experiment is described as above. How it is done:
as §1
This is another data set of the same source.

The target in experiment [7] is T4, cynomolgus DKK1. The experiment is described as above. How it is done:
as §1
This is another data set of the same source.

Experiment [8] concerns the target T3, recombinant human DKK1. The description is as above. The method, then:
as §1
This is another data set of the same source.

Experiment [9] deals with T4, cynomolgus DKK1. Described as above. How it is done:
as §1
This is another data set of the same source.

For experiment [10], the target named is T1, DKK1-APP. Description: cell-based or functional assay. This is another data set of the same source.
For experiment [11], the target named is T3, recombinant human DKK1. Description: cell-based or functional assay.
Experiment [12] concerns the target T3, recombinant human DKK1. The experiment in a line: solution equilibrium titration (SET), ECL (BioVeris), Fab. How it is done: (§2) Electrochemiluminescence (ECL) based affinity determination in solution and data evaluation are basically performed as described by Haenel et al., 2005. […] Subsequently, the concentration of unbound Fab is quantified by ECL detection using the M-SERIES® 384 analyzer (BioVeris Europe).
(§3) Affinities are calculated according to Haenel et al., 2005 Anal Biochem 339.1:182-184.

For experiment [13], the target named is T2, mouse DKK1 (R&D Systems). The description is as above. How it is done:
as §2, §3

In experiment [14] the target is T4, cynomolgus DKK1. The description is as above. The method, then:
as §2, §3

In another experiment the target is T5, biotinylated human DKK1 (human, UniProt O94907 32-266, biotinylated (sites not given)).
T5 construct: also called biotinylated DKK1; human recombinant, biotinylated DKK1
T5 sequence: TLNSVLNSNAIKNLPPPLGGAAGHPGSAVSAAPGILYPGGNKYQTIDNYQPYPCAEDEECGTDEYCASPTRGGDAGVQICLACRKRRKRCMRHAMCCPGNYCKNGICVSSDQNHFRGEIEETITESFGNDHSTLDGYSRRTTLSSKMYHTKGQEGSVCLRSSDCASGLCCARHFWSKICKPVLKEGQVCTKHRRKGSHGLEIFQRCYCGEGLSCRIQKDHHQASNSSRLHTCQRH
The experiment in a line: ELISA, biotinylated DKK1 on Neutravidin plates, Fab 1 ug/ml, anti-FLAG-AP detection; single measurement. The method, then: Binding specificity of the matured Fabs in the presence of 50% human serum (HS) is determined. […] After coating of the antigen, wells are blocked with TBS/0.05% Tween (TBS-T) supplemented with 1% BSA for 1 h at room temperature. Purified Fabs described above are diluted either in TBS/4% BSA or TBS/50% HS at a final concentration of 1 μg/ml, added to the coated and blocked wells and the plates are incubated for 1 h at room temperature. For detection, an anti-FLAG alkaline phosphatase (AP)-conjugated antibody (1:5000 dilution in TBST) and the fluorogenic substrate AttoPhos (Roche) are used. After each incubation, the wells of the microtiter plates are washed with TBST five times, except after the final incubation step with the labeled secondary antibody when wells are washed three times.
The fluorescence is measured in a TECAN Spectrafluor plate reader.
For orientation: An ELISA detects its analyte on a solid surface through an enzyme-linked reagent.

In experiment [15] the target is T3, recombinant human DKK1. The experiment in a line: solution equilibrium titration (SET), ECL (BioVeris), IgG. An excerpt: (§4) Electrochemiluminescence (ECL) based affinity determination in solution and data evaluation are basically performed as described by [Haenel et al., 2005], the binding fit model is applied as modified according to [Piehler et al., 1997]). […] Biotinylated human. […] Subsequently, the concentration of unbound. IgG is quantified via ECL detection using the M-384 SERIES® analyzer (BioVeris, Europe).

Experiment [16] concerns the target T2, mouse DKK1 (R&D Systems). Described as above.
Excerpt: as §4

Experiment [17] deals with T4, cynomolgus DKK1. The description is as above.
Excerpt: as §4

In a further experiment the target is T6, rat DKK1 (Novartis) (rat, UniProt A6I0Z0 32-270).
T6 sequence: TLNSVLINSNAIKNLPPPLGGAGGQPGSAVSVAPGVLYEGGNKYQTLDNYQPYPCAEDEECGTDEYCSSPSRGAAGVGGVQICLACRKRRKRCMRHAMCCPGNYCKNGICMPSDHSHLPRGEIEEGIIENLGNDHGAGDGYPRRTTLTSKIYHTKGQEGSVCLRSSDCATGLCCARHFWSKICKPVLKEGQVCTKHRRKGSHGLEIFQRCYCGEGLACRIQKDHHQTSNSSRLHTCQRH
The description is as above.
Excerpt: as §4

B1: MOR04455 (Fab, V domains shown)
VH: QVQLVESGGGLVQPGGSLRLSCAASGFTFSSYGMSWVRQAPGKGLEWVSGISGSGSYTYYADSVKGRFTISRDNSKNTLYLQMNSLRAEDTAVYYCARHYMDHWGQGTLVTVSS
VL: DIQMTQSPSSLSASVGDRVTITCRASQDISNYLHWYQQKPGKAPKLLIYGASNLQSGVPSRFSGSGSGTDFTLTISSLQPEDFAVYYCQQYDSIPMTFGQGTKVEIKR
notes: Fab with C-terminal FLAG and 6xHis tags
As a reminder, the EC50 is the concentration that produces a half-maximal response. In general, Kd refers to the free concentration of one partner at which half of the binding sites on the other are occupied at equilibrium, for simple one-to-one binding. Turning to B1, in the experiment with DKK1-APP [1], the “Luciferase reporter assay; EC50” value is 39000 pM. Further, the “EC50” value with DKK1-APP [2] was 39000 pM. The binding result in the experiment with mouse DKK1 (R&D Systems) [3] is listed as “binds”. The Kd in the experiment with recombinant human DKK1 [4] stood at 1600 pM; with cynomolgus DKK1 [5] it was 1500 pM; with recombinant human DKK1 [6], 1600 pM; with cynomolgus DKK1 [7], 1500 pM; in the experiment with recombinant human DKK1 [8] it was 1600 pM; with cynomolgus DKK1 [9], 1500 pM.

B2: MOR04907 (Fab, V domains shown)
VH: QVQLVESGGGLVQPGGSLRLSCAASGFTFNNYGMTWVRQAPGKGLEWVSGISGSGSYTYYADSVKGRFTISRDNSKNTLYLQMNSLRAEDTAVYYCARTIYMDYWGQGTLVTVSS
VL: DIVLTQSPATLSLSPGERATLSCRASQNLFSPYLAWYQQKPGQAPRLLIYGASNRATGVPARFSGSGSGTDFTLTISSLEPEDFAVYYCQQYLSLPTTFGQGTKVEIKR
On to B2, for which the “Luciferase reporter assay w/o Kremen; Activity in 15% Human serum (%)” value (“Luciferase reporter assay w/o Kremen … (%)” below) in the experiment with DKK1-APP [10] stood at 54%. For the same molecule, in the experiment with recombinant human DKK1 [11], the “TCF/LEF luc assay w/Kremen: EC50” value was determined as 900 pM. Also, the values for the Kd with recombinant human DKK1 [12], with mouse DKK1 (R&D Systems) [13] and with cynomolgus DKK1 [14] were 114 pM, 167 pM and 170 pM, respectively. In addition, in the experiment with biotinylated human DKK1, the “Binding activity w/50% Human serum vs 4% BSA (%)” value was above 83%.

B3: MOR04914 (Fab, V domains shown)
VH: QVQLVESGGGLVQPGGSLRLSCAASGFTFSSYWMSWVRQAPGKGLEWVSVISSDSSSTYYADSVKGRFTISRDNSKNTLYLQMNSLRAEDTAVYYCARHGIDFDHWGQGTLVTVSS
VL: DIALTQPASVSGSPGQSITISCTGTSSDLGGYNYVSWYQQHPGKAPKLMIYDVNNRPSGVSNRFSGSKSGNTASLTISGLQAEDEADYYCQSYTYTPISPVFGGGTKLTVLG
As to B3, the “Luciferase reporter assay w/o Kremen … (%)” value with DKK1-APP [10] worked out at 80%. In addition, the “TCF/LEF luc assay w/Kremen: EC50” value in the experiment with recombinant human DKK1 [11] is 1100 pM. The Kd with recombinant human DKK1 [12] came to 94 pM; with mouse DKK1 (R&D Systems) [13] it was 200 pM; in the experiment with cynomolgus DKK1 [14], 140 pM. In addition, the “Binding activity w/50% Human serum vs 4% BSA (%)” value with biotinylated human DKK1 was found to be 83%.

B4: MOR4910 IgG (antibody, V domains shown)
VH: QVQLVESGGGLVQPGGSLRLSCAASGFTFSSYWMSWVRQAPGKGLEWVSGISYSGSNTHYADSVKGRFTISRDNSKNTLYLQMNSLRAEDTAVYYCARMGIDLDYWGQGTLVTVSS
VL: DIALTQPASVSGSPGQSITISCTGTSSDVGGFNYVSWYQQHPGKAPKLMIHDGSNRPSGVSNRFSGSKSGNTASLTISGLQAEDEADYYCQSWDVSPITAVFGGGTKLTVLG
notes: also called MOR04910 IgG
For the molecule B4, the Kd in the experiment with recombinant human DKK1 [15] came to 17 pM; with mouse DKK1 (R&D Systems) [16] it was 10 pM; in the experiment with cynomolgus DKK1 [17] it was 7 pM; with rat DKK1 (Novartis) it was 16 pM.

B5: MOR04921 (Fab, V domains shown)
VH: QVQLVESGGGLVQPGGSLRLSCAASGFTFSSYWMSWVRQAPGKGLEWVSGISYSGSNTHYADSVKGRFTISRDNSKNTLYLQMNSLRAEDTAVYYCARMGIDLDYWGQGTLVTVSS
VL: DIALTQPASVSGSPGQSITISCTGTSSDVGGFNYVSWYQQHPGKAPKLMIHDGSNRPSGVSNRFSGSKSGNTASLTISGLQAEDEADYYCQTWATSPLSSVFGGGTKLTVLG
Take B5: the “Luciferase reporter assay w/o Kremen … (%)” value in the experiment with DKK1-APP [10] turned out to be 26%. Further, in the experiment with recombinant human DKK1 [11], the “TCF/LEF luc assay w/Kremen: EC50” value amounted to 700 pM. The “Binding activity w/50% Human serum vs 4% BSA (%)” value with biotinylated human DKK1 is 93%.

B6: MOR04954 (Fab, V domains shown)
VH: QVQLVESGGGLVQPGGSLRLSCAASGFTFSSYWMSWVRQAPGKGLEWVSVIEHKDKGGTTYYAASVKGRFTISRDNSKNTLYLQMNSLRAEDTAVYYCARHGIDFDHWGQGTLVTVSS
VL: DIALTQPASVSGSPGQSITISCTGTSSDLGGYNYVSWYQQHPGKAPKLMIYDVNNRPSGVSNRFSGSKSGNTASLTISGLQAEDEADYYCQSYASGNTKVVFGGGTKLTVLG
Regarding B6, in the experiment with DKK1-APP [10], the “Luciferase reporter assay w/o Kremen … (%)” value was 55%. In the experiment with recombinant human DKK1 [11], the “TCF/LEF luc assay w/Kremen: EC50” value amounted to 1300 pM. Further, the Kd with recombinant human DKK1 [12] was 110 pM; with mouse DKK1 (R&D Systems) [13], 36 pM; with cynomolgus DKK1 [14], 112 pM. In addition, the “Binding activity w/50% Human serum vs 4% BSA (%)” value with biotinylated human DKK1 was above 83%.
